14 molecules from PMC314469, “Protein Interaction Networks by Proteome Peptide Scanning” (PLoS Biology, 2004) can be followed below.

Test in all cases: SPOT array
The target in assay [1] is T1, Rvs167 SH3 (RV167_YEAST), P39743.
T1 chain: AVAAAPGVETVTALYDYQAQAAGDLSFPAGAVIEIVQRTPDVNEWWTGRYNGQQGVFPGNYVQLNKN

Assay [2] deals with T2, Yfr024 SH3 (LSB3_YEAST), P43603.
T2 chain: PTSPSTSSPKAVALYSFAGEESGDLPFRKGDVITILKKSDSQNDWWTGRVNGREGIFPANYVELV

The target of assay [3] is T3, Boi2 SH3 (BOI2_YEAST), P39969.
T3 chain: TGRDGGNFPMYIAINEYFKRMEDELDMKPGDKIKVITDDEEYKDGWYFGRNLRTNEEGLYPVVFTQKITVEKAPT

Assay [4] concerns the target T4, Myo5 SH3 (MYO5_YEAST), Q04439.
T4 chain: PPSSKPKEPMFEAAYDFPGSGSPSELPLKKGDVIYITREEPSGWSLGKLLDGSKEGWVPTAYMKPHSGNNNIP

The target of assay [5] is T5, Yhr016c SH3 (YSC84_YEAST), P32793.
T5 chain: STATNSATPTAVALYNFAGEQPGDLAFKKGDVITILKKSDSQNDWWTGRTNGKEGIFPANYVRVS

Assay [6] addresses T6, Boi1 SH3 (BOI1_YEAST), P38041.
T6 chain: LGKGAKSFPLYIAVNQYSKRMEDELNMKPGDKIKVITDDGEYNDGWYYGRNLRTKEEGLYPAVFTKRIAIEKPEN

In assay [7] the target is Sho1 SH3 (SHO1_YEAST), P40073.
Sequence of Sho1 SH3 (SHO1_YEAST), P40073 (P40073 295-366): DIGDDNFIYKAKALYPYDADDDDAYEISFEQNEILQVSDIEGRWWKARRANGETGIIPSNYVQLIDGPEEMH

In the case of SRYLKDHPNLPTPE [YOR353C 203-216], the normalised SPOT signal, Boehringer light units (BLU); mean over the file's lines of this peptide is 104 in assay [1]; 99.8 in assay [2]; 0 in assay [3]; 69.2 in assay [4]; 23.3 in assay [5]; 208 in assay [6]. The same molecule registered a normalised SPOT signal, Boehringer light units (BLU); mean over the file's lines of this peptide in assay [7] of 94.1.
Consider SMAMRPIPPLPTES [YNL152W 155-168], for which the normalised SPOT signal, Boehringer light units (BLU); mean over the file's lines of this peptide in assay [1] turned out to be 32500; in assay [2] it was 50600; in assay [3], 49; in assay [4] it was 1330; in assay [5], 46600; in assay [6], 37. Besides, the normalised SPOT signal, Boehringer light units (BLU); mean over the file's lines of this peptide in assay [7] is 242.
With SSKIRPTPRKPSRM [YER118C 4-17], the normalised SPOT signal, Boehringer light units (BLU); mean over the file's lines of this peptide in assay [1] amounted to 7920; in assay [2], 9730; in assay [3], 58.4; in assay [4], 673; in assay [5] it was 697; in assay [6], 982. The normalised SPOT signal, Boehringer light units (BLU); mean over the file's lines of this peptide in assay [7] was determined as 144.
For the molecule SSVSKLKPSLPNKL [YPL242C 73-86], the normalised SPOT signal, Boehringer light units (BLU); mean over the file's lines of this peptide in assay [1] stood at 176; in assay [2], 1380; in assay [3], 50.5; in assay [4], 418; in assay [5], 39.2; in assay [6] it was 332. For the same molecule, in assay [7], the normalised SPOT signal, Boehringer light units (BLU); mean over the file's lines of this peptide turned out to be 30.7.
As for SQKKKALPKQPKAS [YDR028C 871-884], the normalised SPOT signal, Boehringer light units (BLU); mean over the file's lines of this peptide is 186 in assay [1]; 307 in assay [2]; 29.5 in assay [3]; 493 in assay [4]; 61.2 in assay [5]; 1060 in assay [6]. In assay [7], the normalised SPOT signal, Boehringer light units (BLU); mean over the file's lines of this peptide came out at 3210.
Take SLKNRDGPITPSTI [YPR128C 112-125]: the normalised SPOT signal, Boehringer light units (BLU); mean over the file's lines of this peptide in assay [1] was 232; in assay [2] it was 161; in assay [3], 67.9; in assay [4], 215; in assay [5], 14.1; in assay [6] it was 60.2. Besides, the normalised SPOT signal, Boehringer light units (BLU); mean over the file's lines of this peptide in assay [7] amounted to 25.7.
For SNFKKRDPGLPDFQ [YPL083C 302-315], the normalised SPOT signal, Boehringer light units (BLU); mean over the file's lines of this peptide in assay [1] was found to be 89.5; in assay [2], 212; in assay [3], 6.1; in assay [4], 161; in assay [5], 49.4; in assay [6], 238. The normalised SPOT signal, Boehringer light units (BLU); mean over the file's lines of this peptide in assay [7] worked out at 36.9.
As to STDHRGTPANPGRV [YER163C 43-56], the normalised SPOT signal, Boehringer light units (BLU); mean over the file's lines of this peptide in assay [1] was found to be 23.6; in assay [2], 6.2; in assay [3], 0; in assay [4], 257; in assay [5] it was 30.5; in assay [6], 26.3. The same molecule came in with a normalised SPOT signal, Boehringer light units (BLU); mean over the file's lines of this peptide in assay [7] of 60.8.
As to SRSKRSKPLPPQLL [YJL095W 840-853], the normalised SPOT signal, Boehringer light units (BLU); mean over the file's lines of this peptide in assay [1] was 159; in assay [2] it was 411; in assay [3] it was 10.6; in assay [4], 884; in assay [5], 10.4; in assay [6], 685. This molecule gave a normalised SPOT signal, Boehringer light units (BLU); mean over the file's lines of this peptide in assay [7] of 1740.
Take SLLAKYQPSLPLVE [YDL179W 224-237]: the normalised SPOT signal, Boehringer light units (BLU); mean over the file's lines of this peptide in assay [1] came to 68.6; in assay [2], 57.4; in assay [3] it was 76.8; in assay [4] it was 162; in assay [5], 46.8; in assay [6] it was 44.7. In assay [7], this molecule came in with a normalised SPOT signal, Boehringer light units (BLU); mean over the file's lines of this peptide of 58.4.
With SRVTRKRPREPKST [YBL111C 334-347], the normalised SPOT signal, Boehringer light units (BLU); mean over the file's lines of this peptide in assay [1] turned out to be 162; in assay [2] it was 674; in assay [3] it was 40.5; in assay [4], 829; in assay [5], 49.5; in assay [6], 794. The same molecule displayed a normalised SPOT signal, Boehringer light units (BLU); mean over the file's lines of this peptide in assay [7] of 95.
With SLTLKTLPRVPTDS [YDL197C 461-474], the normalised SPOT signal, Boehringer light units (BLU); mean over the file's lines of this peptide in assay [1] worked out at 163; in assay [2], 188; in assay [3], 28.1; in assay [4], 212; in assay [5], 28.2; in assay [6], 75.5. In assay [7], this molecule showed a normalised SPOT signal, Boehringer light units (BLU); mean over the file's lines of this peptide of 31400.
Take SLISKRNPSYPYGI [YEL050C 18-31]: the normalised SPOT signal, Boehringer light units (BLU); mean over the file's lines of this peptide came out at 45.7 in assay [1]; 79.2 in assay [2]; 53.2 in assay [3]; 483 in assay [4]; 10.1 in assay [5]; 274 in assay [6]. Also, the normalised SPOT signal, Boehringer light units (BLU); mean over the file's lines of this peptide in assay [7] came out at 159.
With SMDSKRKPSPPSQR [YPL141C 758-771], the normalised SPOT signal, Boehringer light units (BLU); mean over the file's lines of this peptide in assay [1] came out at 371; in assay [2] it was 824; in assay [3], 110; in assay [4], 510; in assay [5], 171; in assay [6], 1110. In assay [7], the normalised SPOT signal, Boehringer light units (BLU); mean over the file's lines of this peptide was found to be 89.1.
